Here are results for two molecules from article PMC12017799, “Molecular mechanism of SmMYB53 activates the expression of SmCYP71D375, thereby modulating tanshinone accumulation in Salvia miltiorrhiza”.

This data set has as its target SmMYB53 (Salvia miltiorrhiza, UniProt A0A059PSP0 1-372). Briefly: EMSA; SmMYB53 alone; LightShift Chemiluminescent EMSA kit (Beyotime) binding buffer, >30 min at 4 C; unlabeled competitor 10-fold; salt and pH not stated. The note with it: protein: recombinant; tags: His (pCold); label: biotin; blunt. Background: Mobility shift assays separate free from complexed probe on a gel.

Sequence of SmMYB53 (A0A059PSP0 entry or part of it): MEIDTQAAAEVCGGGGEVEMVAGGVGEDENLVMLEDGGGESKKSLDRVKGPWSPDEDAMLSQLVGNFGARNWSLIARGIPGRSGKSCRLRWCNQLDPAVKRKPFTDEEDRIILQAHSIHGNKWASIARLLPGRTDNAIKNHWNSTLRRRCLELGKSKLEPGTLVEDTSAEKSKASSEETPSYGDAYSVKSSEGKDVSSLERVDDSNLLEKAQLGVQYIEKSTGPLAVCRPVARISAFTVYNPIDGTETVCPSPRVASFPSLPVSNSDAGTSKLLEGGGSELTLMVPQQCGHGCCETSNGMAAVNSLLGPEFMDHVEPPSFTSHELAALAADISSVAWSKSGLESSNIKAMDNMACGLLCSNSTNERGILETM

B1: MBS2 probe (SmCYP71D375 promoter) (dsDNA)
DNA 1: AGATCCGTTGGAGAAGATCCGTTGGAGAAGATCCGTTGGAGA
DNA 2: TCTCCAACGGATCTTCTCCAACGGATCTTCTCCAACGGATCT
As for B1, the binding result is “binds”.

B2: MBS1 probe (SmCYP71D375 promoter) (dsDNA)
DNA 1: GCTTCAGTTGAGCTGCTTCAGTTGAGCTGCTTCAGTTGAGCT
DNA 2: AGCTCAACTGAAGCAGCTCAACTGAAGCAGCTCAACTGAAGC
Regarding B2, the binding result is listed as “binds”.
